Laboratory results from article PMC2839365 (Biochemical and biophysical research communications, 2010).
Like-named read-outs stand apart in the source and are kept apart here.

Columns and labels:
Test in all cases: ITC
βI14-15 T1788A [1] = target: βI14-15 T1788A
βI14-15 T1788A [2] = target: βI14-15 T1788A; remark: listed apart in the source
βI14-15 Y1866A = target: βI14-15 Y1866A
βI14-15 A1867P = target: βI14-15 A1867P
[3] = target: wild type βI-spectrin 14-15 di-repeat
βI14-15 D1700A = target: βI14-15 D1700A
βI14-15 D1701A = target: βI14-15 D1701A
βI14-15 E1703A = target: βI14-15 E1703A
βI14-15 E1708A = target: βI14-15 E1708A
βI14-15 E1710A = target: βI14-15 E1710A
βI14-15 D1781A = target: βI14-15 D1781A
βI14-15 E1784A = target: βI14-15 E1784A

Kd (βI14-15 T1788A [1]): 5800 nM
Kd (βI14-15 T1788A [2]): 5730 nM
Kd (βI14-15 Y1866A): 22000 nM
Kd (βI14-15 A1867P): 14900 nM
Kd [3]: 190 nM
Kd (βI14-15 D1700A): 440 nM
Kd (βI14-15 D1701A): 360 nM
Kd (βI14-15 E1703A): 320 nM
Kd (βI14-15 E1708A): 430 nM
Kd (βI14-15 E1710A): 1700 nM
Kd (βI14-15 D1781A): 2100 nM
Kd (βI14-15 E1784A): 43400 nM
B1: ZU5 domain of ankyrin (domain or fragment)
chain: FLVSFMVDARGGSMRGSRHNGLRVVIPPRTCAAPTRITCRLVKPQKLSTPPPLAEEEGLASRIIALGPTGAQFLSPVIVEIPHFASHGRGDRELVVLRSENGSVWKEHRSRYGESYLDQILNGMDEELGSLEELEKKRVCRIITTDFPLYFVIMSR
